Measurements published in article PMC10397247.
One block for each binder: values may come before it.

Tests used:
Assay in all cases: two-hybrid library CCNG1;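 note: natural log of median RNA to DNA barcode read ratio; higher means stronger binding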
4H3817-bH = target: T1, 4H3817-bH
T1 chain: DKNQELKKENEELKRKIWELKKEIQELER

4H3782-bH = target: T2, 4H3782-bH
T2 chain: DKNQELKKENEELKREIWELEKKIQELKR

4H1899-bH = target: T3, 4H1899-bH
T3 chain: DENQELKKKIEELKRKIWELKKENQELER

4H3843-bH = target: T4, 4H3843-bH
T4 chain: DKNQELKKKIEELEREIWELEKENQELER

4H3462-bH = target: T5, 4H3462-bH
T5 chain: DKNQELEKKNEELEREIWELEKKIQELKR

4H3974-bH = target: T6, 4H3974-bH
T6 chain: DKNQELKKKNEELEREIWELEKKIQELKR

4H906-bH = target: T7, 4H906-bH
T7 chain: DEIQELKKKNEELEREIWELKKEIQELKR

4H591-bH = target: T8, 4H591-bH
T8 chain: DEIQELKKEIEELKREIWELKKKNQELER

4H570-bH = target: T9, 4H570-bH
T9 chain: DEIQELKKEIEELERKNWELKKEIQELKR

4H3926-bH = target: T10, 4H3926-bH
T10 chain: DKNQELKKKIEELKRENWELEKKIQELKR

4H3613-bH = target: T11, 4H3613-bH
T11 chain: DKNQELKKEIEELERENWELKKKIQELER

4H1985-bH = target: T12, 4H1985-bH
T12 chain: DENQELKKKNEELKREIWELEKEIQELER

4H932-bN = target: T13, 4H932-bN
T13 chain: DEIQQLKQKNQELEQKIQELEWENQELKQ

4H850-bH = target: T14, 4H850-bH
T14 chain: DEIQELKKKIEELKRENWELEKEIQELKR

4H1373-bH = target: T15, 4H1373-bH
T15 chain: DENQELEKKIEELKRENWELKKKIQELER

4H3162-bH = target: T16, 4H3162-bH
T16 chain: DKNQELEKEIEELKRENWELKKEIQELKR

4H3298-bH = target: T17, 4H3298-bH
T17 chain: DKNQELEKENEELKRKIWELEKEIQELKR

4H3497-bH = target: T18, 4H3497-bH
T18 chain: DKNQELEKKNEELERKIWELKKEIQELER

4H626-bH = target: T19, 4H626-bH
T19 chain: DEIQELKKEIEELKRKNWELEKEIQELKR

4H1544-bH = target: T20, 4H1544-bH
T20 chain: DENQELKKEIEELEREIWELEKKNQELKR

O8 = target: T21, O8
T21 chain: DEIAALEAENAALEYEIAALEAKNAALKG

4H1710-bH = target: T22, 4H1710-bH
T22 chain: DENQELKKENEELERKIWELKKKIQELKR

4H3175-bH = target: T23, 4H3175-bH
T23 chain: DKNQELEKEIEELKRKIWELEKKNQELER

4H3277-bH = target: T24, 4H3277-bH
T24 chain: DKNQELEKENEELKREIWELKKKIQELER

4H3858-bH = target: T25, 4H3858-bH
T25 chain: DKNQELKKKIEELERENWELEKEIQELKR

4H1449-bH = target: T26, 4H1449-bH
T26 chain: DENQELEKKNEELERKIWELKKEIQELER

4H3628-bH = target: T27, 4H3628-bH
T27 chain: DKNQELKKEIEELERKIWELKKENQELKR

4H730-bA = target: T28, 4H730-bA
T28 chain: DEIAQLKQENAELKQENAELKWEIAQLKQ

P7SHb = target: T29, P7SHb
T29 chain: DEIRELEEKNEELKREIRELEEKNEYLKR

P8SHb = target: T30, P8SHb
T30 chain: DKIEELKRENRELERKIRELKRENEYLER

P3SHb = target: T31, P3SHb
T31 chain: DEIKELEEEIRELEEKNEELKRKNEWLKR

P6SHb = target: T32, P6SHb
T32 chain: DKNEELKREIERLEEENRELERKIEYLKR

P2SHb = target: T33, P2SHb
T33 chain: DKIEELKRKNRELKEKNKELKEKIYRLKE

P9SHb = target: T34, P9SHb
T34 chain: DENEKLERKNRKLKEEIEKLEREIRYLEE

P4SHb = target: T35, P4SHb
T35 chain: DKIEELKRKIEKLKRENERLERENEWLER

P5SHb = target: T36, P5SHb
T36 chain: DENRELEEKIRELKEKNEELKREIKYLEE

interaction score (4H3817-bH): -0.502 | interaction score (4H3782-bH): -0.345 | interaction score (4H1899-bH): -2 | interaction score (4H3843-bH): -0.0729 | interaction score (4H3462-bH): -0.048 | interaction score (4H3974-bH): 0.369 | interaction score (4H906-bH): -0.627 | interaction score (4H591-bH): -0.84 | interaction score (4H570-bH): 0.082 | interaction score (4H3926-bH): 1.67 | interaction score (4H3613-bH): 0.423 | interaction score (4H1985-bH): 0.5 | interaction score (4H932-bN): 0.58 | interaction score (4H850-bH): -0.156 | interaction score (4H1373-bH): 0.778 | interaction score (4H3162-bH): 0.645 | interaction score (4H3298-bH): 0.0783 | interaction score (4H3497-bH): -0.763 | interaction score (4H626-bH): -0.984 | interaction score (4H1544-bH): -0.374 | interaction score (O8): -0.719 | interaction score (4H1710-bH): -2.29 | interaction score (4H3175-bH): 0.281 | interaction score (4H3277-bH): -0.681 | interaction score (4H3858-bH): 0.654 | interaction score (4H1449-bH): -1.04 | interaction score (4H3628-bH): -1.36 | interaction score (4H730-bA): -0.488
Binder: DENQELEKKIEELKRENWELKKKIQELER [4H1373-bH]

interaction score (P7SHb): 0.49 | interaction score (P8SHb): -0.265 | interaction score (P3SHb): -0.091 | interaction score (P6SHb): 0.195 | interaction score (P2SHb): -0.669 | interaction score (P9SHb): -1.55 | interaction score (P4SHb): 0.291 | interaction score (P5SHb): 0.588
Binder: DKIEELKRKNRELKEKNKELKEKIYRLKE [P2SHb]
